# No end group written: not given here.
# T1: CD40 peptide, residues 125-144 of human CD40 (125PCPVGFFSNVSSAFEKCHPW144) (human)
# T1 construct: It is the unmutated control peptide of the mutagenesis set
# T1 peptide: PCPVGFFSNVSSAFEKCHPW
# T2: CD40 CLIPS peptide, residues 84-102 of CD40 (84TCEEGWHCTSEACESCVLH102) (human, linker (positions not given here) via CLIPS template (1,3-bis(bromomethyl)benzene); also: cysteine side chains coupled to CLIPS template(s), solid-phase bound peptide of Pepscan array)
# T2 construct: It is the unmutated control peptide of the mutagenesis set
# T2 peptide: TCEEGWHCTSEACESCVLH
# B1: APX005, humanized version of the R-8 rabbit anti-CD40 antibody (antibody, IgG1, V domains shown)
# VH: QVQLVESGGGVVQPGRSLRLSCAASGFSFSSTYVCWVRQAPGKGLEWIACIYTGDGTNYSASWAKGRFTISKDSSKNTVYLQMNSLRAEDTAVYFCARPDITYGFAINFWGPGTLVTVSS
# VL: DIQMTQSPSSLSASVGDRVTIKCQASQSISSRLAWYQQKPGKPPKLLIYRASTLASGVPSRFSGSGSGTDFTLTISSLQPEDVATYYCQCTGYGISWPIGGGTKVEIK
# notes: also called humanized R-8; APX005 wild type
# Assays:
# human CD40 = molecular target: T3, human CD40 (human, UniProt P25942 21-193); assay: method not stated
# T3 construct: also called immobilized human CD40
# T3 sequence (P25942 21-193 limits assumed): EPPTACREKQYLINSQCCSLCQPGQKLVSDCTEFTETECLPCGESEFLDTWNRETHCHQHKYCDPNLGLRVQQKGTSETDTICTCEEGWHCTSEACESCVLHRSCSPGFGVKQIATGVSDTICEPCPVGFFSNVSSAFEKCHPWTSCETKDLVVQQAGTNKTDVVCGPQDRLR
# [1] = molecular target: T1, CD40 peptide, residues 125-144 of human …; assay: PEPSCAN-based ELISA on solid-phase peptides
# Experimental: The binding of antibody to each of the synthesized peptides was tested in a PEPSCAN-based ELISA. The peptide arrays were incubated with primary antibody solution (overnight at 4° C.). After washing, the peptide arrays were incubated with a 1/1000 dilution of an antibody peroxidase conjugate (SBA, cat.nr.2010-05) for one hour at 25° C. After washing, the peroxidase substrate 2,2′-azino-di-3-ethylbenzthiazoline sulfonate (ABTS) and 2 microliters/milliliter of 3 percent H₂O₂ were added. After one hour, the color development was measured. The color development was quantified with a charge coupled device (CCD)—camera and an image processing system.
# [2] = molecular target: T2, CD40 CLIPS peptide, residues 84-102 of …; assay: PEPSCAN-based ELISA on solid-phase CLIPS peptides
# From the text: To reconstruct discontinuous epitopes of the target molecule a library of structured peptides was synthesized. This was done using Pepscan's proprietary Chemically Linked Peptides on Scaffolds (CLIPS™) technology (Pepscan Presto, Lelystad The Netherlands) (see e.g., Timmerman et al. (2007). J. Mol. Recognit. 20:283-99; Slootstra et al. (1996). Molecular Diversity 1: 87-96). CLIPS™ technology provides the ability to structure peptides into single loops, double-loops, triple loops, sheet-like folds, helix-like folds and combinations thereof. CLIPS™ templates are coupled to cysteine residues. For this experiment, the side-chains of multiple cysteines in the peptides were coupled to one or two CLIPS™ templates. […]
# The binding of antibody to each of the synthesized peptides was tested in a PEPSCAN-based ELISA. […] After one hour, the color development was measured. The color development was quantified with a charge coupled device (CCD)—camera and an image processing system.
# [3] = molecular target: T4, fusion protein of rabbit Fc and 4-1 BB (UniProt Q07011 24-186); assay: direct ELISA, 1 ug/ml rabbit Fc-4-1BB fusion coated, goat anti-human IgG-HRP
# T4 construct: Neither the species nor the order of the parts is stated; not shown: rabbit Fc
# T4 sequence (Q07011 24-186): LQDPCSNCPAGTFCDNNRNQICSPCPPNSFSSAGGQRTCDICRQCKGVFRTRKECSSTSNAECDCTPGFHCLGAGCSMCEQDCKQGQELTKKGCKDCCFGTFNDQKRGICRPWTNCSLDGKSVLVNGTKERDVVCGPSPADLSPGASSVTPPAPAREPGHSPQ
# Experimental: Binding selectivity of APX005 was assessed by direct ELISA to a panel of TNFR family proteins. A total of 1 μg/ml of fusion protein of rabbit Fc and CD40, RANK, TweakR, OX40, DR5 and 4-1 BB were coated on ELISA plates. Bound APX005 was detected using goat anti-human HRP-conjugated IgG.
# mouse CD40 = molecular target: T5, mouse CD40 (mouse, UniProt P27512 20-193, limits assumed); assay: direct ELISA according to paragraph 284 (1 ug/ml mouse CD40 coated, goat anti-human IgG-HRP); y axis of the sheet reads MFI
# T5 construct: Coated on ELISA plates at 1 ug/ml
# T5 sequence (P27512 20-193 limits assumed): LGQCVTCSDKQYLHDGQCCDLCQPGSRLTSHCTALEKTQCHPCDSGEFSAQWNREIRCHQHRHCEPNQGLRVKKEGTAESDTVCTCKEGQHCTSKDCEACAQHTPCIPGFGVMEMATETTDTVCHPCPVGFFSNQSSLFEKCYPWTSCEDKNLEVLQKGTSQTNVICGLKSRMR
# Experimental: Cross-reactivity was assessed by direct ELISA. A total of 1 μg/ml of human CD40, monkey CD40 or mouse CD40 was coated on ELISA plates followed by incubation with 1 μg/ml of APX005 or control IgG1. Antibodies bound to CD40 were detected using goat anti-human IgG conjugated with HRP. APX005 clearly crossreacts with monkey CD40 but not mouse CD40. (FIG. 11A)
binder,measurement,setting,value
B1,Kd,human CD40,0.96 nM
same,binding result,[1],binds
same,binding result,[2],binds
same,binding result,[3],no binding
same,binding result,mouse CD40,no binding
